To fix the notation:
B1: CPEB3 Ribozyme (parent)
chain: GGGGGCCACAGCAGAAGCGUUCACGUCGCGGCCCCUGUCAGAUUCUGGUGAAUCUGCGAAUUCUGCUGU

The variants in the data set derive from B1. The data set is described as follows: self-cleavage, relative activity (ratio to wild type); higher = more cleavage; co-transcriptional.
Turning to GGGGGCCACAGCAGAAGCGUUCACGUCGCGGCCCCUGUUACAUUCUGGUGAAUCUGCGAAUUCUGCUGU [C39U G41C], the self-cleavage is 0.445.

For GGGGGCCACAGCAGAAGCGUUCACGUCGCGGCCCCUGUUAGAUUCUGGCGAAUCUGCGAAUUCUGCUGU [C39U U49C], the self-cleavage came to 0.927.

On to GGGGGCCACAGCAGAAGCGUUCACGUCGCGGCCCCUGUGAGAUUCUGGUGAAUCUGCGAAUUCUGCAGU [C39G U67A], for which the self-cleavage worked out at 0.927.

Consider GGGGGCCACAGCAGAAGCGUUCACGUCGCGGCCCCUGUGAGAUUCUGGUGAAUCUGCGAAUUCUGCGGU [C39G U67G], for which the self-cleavage was 0.965.

For GGGGGCCACAGCAGAAGCGUUCACGUCGCGGCCCCUGUCCGAUUCUGGUGAAUCUGCGAAUUCUGCUCU [A40C G68C], the self-cleavage came to 0.749.

Consider GGGGGCCACAGCAGAAGCGUUCACGUCGCGGCCCCUGUCCGAUUCUGGUGAAUCUGCGAAUUCUGCUUU [A40C G68U], for which the self-cleavage was determined as 0.806.

For GGGGGCCACAGCAGAAGCGUUCACGUCGCGGCCCCUGUCGGAUUCUCGUGAAUCUGCGAAUUCUGCUGU [A40G G47C], the self-cleavage was 1.

For the variant GGGGGCCACAGCAGAAGCGUUCACGUCGCGGCCCCUGUCCGAUUCUGGUGAAUCUGCGUAUUCUGCUGU [A40C A59U], the self-cleavage amounted to 0.381.

Consider GGGGGCCACAGCAGAAGCGUUCACGUCGCGGCCCCUGUCCGAUUCUGGUGCAUCUGCGAAUUCUGCUGU [A40C A51C], for which the self-cleavage came to 0.359.

Regarding GGGGGCCACAGCAGAAGCGUUCACGUCGCGGCCCCUGUCCGAUUCUGGUGAAUGUGCGAAUUCUGCUGU [A40C C54G], the self-cleavage was found to be 0.323.

Regarding GGGGGCCACAGCAGAAGCGUUCACGUCGCGGCCCCUGUCCGAUUCUGGUGAAUCUGCGAAUUAUGCUGU [A40C C63A], the self-cleavage was found to be 0.321.

Consider GGGGGCCACAGCAGAAGCGUUCACGUCGCGGCCCCUGUCCGAUUCUGGUGAAUCGGCGAAUUCUGCUGU [A40C U55G], for which the self-cleavage worked out at 0.951.

On to GGGGGCCACAGCAGAAGCGUUCACGUCGCGGCCCCUGUGAGAUUCUGGUGAAUCUGCGAAUUCUGCUGA [C39G U69A], for which the self-cleavage turned out to be 0.967.

For the variant GGGGGCCACAGCAGAAGCGUUCACGUCGCGGCCCCUGUGAGAUUCUGGUGAAUCUGCGAAUUCUGCUGG [C39G U69G], the self-cleavage worked out at 1.

Take GGGGGCCACAGCAGAAGCGUUCACGUCGCGGCCCCUGUUAGAUUAUGGUGAAUCUGCGAAUUCUGCUGU [C39U C45A]: the self-cleavage amounted to 0.759.

On to GGGGGCCACAGCAGAAGCGUUCACGUCGCGGCCCCUGUUAGAUUGUGGUGAAUCUGCGAAUUCUGCUGU [C39U C45G], for which the self-cleavage amounted to 0.74.

As for GGGGGCCACAGCAGAAGCGUUCACGUCGCGGCCCCUGUCCGAUUCUGGUGAAUCUGCGAAUUCUGCCGU [A40C U67C], the self-cleavage worked out at 0.539.

For the variant GGGGGCCACAGCAGAAGCGUUCACGUCGCGGCCCCUGUCCGAUACUGGUGAAUCUGCGAAUUCUGCUGU [A40C U44A], the self-cleavage came out at 0.417.

GGGGGCCACAGCAGAAGCGUUCACGUCGCGGCCCCUGUCCGAUGCUGGUGAAUCUGCGAAUUCUGCUGU [A40C U44G]: the self-cleavage is 0.419.

In the case of GGGGGCCACAGCAGAAGCGUUCACGUCGCGGCCCCUGUCCGAUCCUGGUGAAUCUGCGAAUUCUGCUGU [A40C U44C], the self-cleavage worked out at 0.368.

For GGGGGCCACAGCAGAAGCGUUCACGUCGCGGCCCCUGUCGGCUUCUGGUGAAUCUGCGAAUUCUGCUGU [A40G A42C], the self-cleavage was determined as 0.81.

Turning to GGGGGCCACAGCAGAAGCGUUCACGUCGCGGCCCCUGUCGGAUUCUGGUGACUCUGCGAAUUCUGCUGU [A40G A52C], the self-cleavage amounted to 0.87.

In the case of GGGGGCCACAGCAGAAGCGUUCACGUCGCGGCCCCUGUCGGAUUCUGGUGAGUCUGCGAAUUCUGCUGU [A40G A52G], the self-cleavage turned out to be 0.903.

Turning to GGGGGCCACAGCAGAAGCGUUCACGUCGCGGCCCCUGUCGGAUUCUGGUGAUUCUGCGAAUUCUGCUGU [A40G A52U], the self-cleavage was 0.851.

Regarding GGGGGCCACAGCAGAAGCGUUCACGUCGCGGCCCCUGUCCGAUUCUGAUGAAUCUGCGAAUUCUGCUGU [A40C G48A], the self-cleavage amounted to 0.882.

Turning to GGGGGCCACAGCAGAAGCGUUCACGUCGCGGCCCCUGUCCGAUUCUGCUGAAUCUGCGAAUUCUGCUGU [A40C G48C], the self-cleavage is 0.716.

On to GGGGGCCACAGCAGAAGCGUUCACGUCGCGGCCCCUGUUAGAUCCUGGUGAAUCUGCGAAUUCUGCUGU [C39U U44C], for which the self-cleavage worked out at 0.514.

With GGGGGCCACAGCAGAAGCGUUCACGUCGCGGCCCCUGUUAGAUGCUGGUGAAUCUGCGAAUUCUGCUGU [C39U U44G], the self-cleavage worked out at 0.693.

Consider GGGGGCCACAGCAGAAGCGUUCACGUCGCGGCCCCUGUCCUAUUCUGGUGAAUCUGCGAAUUCUGCUGU [A40C G41U], for which the self-cleavage is 0.22.

For GGGGGCCACAGCAGAAGCGUUCACGUCGCGGCCCCUGUUAGAUUCUGGUGAAUCCGCGAAUUCUGCUGU [C39U U55C], the self-cleavage is 0.752.

Turning to GGGGGCCACAGCAGAAGCGUUCACGUCGCGGCCCCUGUUAGAUUCUGGUGAAUCAGCGAAUUCUGCUGU [C39U U55A], the self-cleavage was found to be 0.752.

For the variant GGGGGCCACAGCAGAAGCGUUCACGUCGCGGCCCCUGUUAGAUUCUGGUGAAUCUGCGAAUUCUGCUAU [C39U G68A], the self-cleavage was found to be 0.99.

With GGGGGCCACAGCAGAAGCGUUCACGUCGCGGCCCCUGUCCGAUUCUGGUGAAUCUGCAAAUUCUGCUGU [A40C G58A], the self-cleavage is 0.659.

GGGGGCCACAGCAGAAGCGUUCACGUCGCGGCCCCUGUUAGAAUCUGGUGAAUCUGCGAAUUCUGCUGU [C39U U43A]: the self-cleavage was 0.49.

Turning to GGGGGCCACAGCAGAAGCGUUCACGUCGCGGCCCCUGUUAGAGUCUGGUGAAUCUGCGAAUUCUGCUGU [C39U U43G], the self-cleavage is 0.405.

With GGGGGCCACAGCAGAAGCGUUCACGUCGCGGCCCCUGUCCGAUUCUGGUGAAUCUGCGAAUUCCGCUGU [A40C U64C], the self-cleavage is 0.357.

Turning to GGGGGCCACAGCAGAAGCGUUCACGUCGCGGCCCCUGUCCGAUUCUGGUGAAUCUGCGAAUUCGGCUGU [A40C U64G], the self-cleavage amounted to 0.403.

For GGGGGCCACAGCAGAAGCGUUCACGUCGCGGCCCCUGUUAGAUUCAGGUGAAUCUGCGAAUUCUGCUGU [C39U U46A], the self-cleavage amounted to 0.934.

Take GGGGGCCACAGCAGAAGCGUUCACGUCGCGGCCCCUGUCGGAUUCUGGUGGAUCUGCGAAUUCUGCUGU [A40G A51G]: the self-cleavage amounted to 0.979.

The values above are taken from the RNAGym collection of RNA variant scans (doi:10.7554/elife.80360).
